Data set [1] deals with the molecule itself. In words: SEC. On the technique in general: Size exclusion chromatography separates by hydrodynamic size, large species first.
Data set [2] deals with the molecule itself. In words: SEC. The source holds these as a separate data set.

Read-outs that look alike come from different tables or passages of the source.

B1: ^coreAFG3L2^E408Q (enzyme)
chain: not shown
On to B1, for which the stoichiometry N (as a rule, the number of molecules, sites or subunits per partner or assembly) in “SEC [1]” was 6.

B2: ^coreAFG3L2^E575Q (enzyme)
chain: not shown
Turning to B2, the “stoichiometry N” value in the data set “SEC [2]” amounted to 6.
